From the domain aggregation screens of Martell et al. (2025)

Assay: soluble fraction after stress (log2 fold change); higher = more stays soluble; pooled small domains, quantitative proteomics
Details: stress: 50 degC
Procedure, shortened: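 Pooled custom libraries of small protein domains were measured in a high-throughput format, with quantitative proteomics as the read-out. Each library was stressed at 50°C. Aggregation propensity is given as the base-two logarithm of the fold change in how much of each protein stays soluble after the stress. Higher values mean a larger share of the protein remains in solution.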

Sequence | soluble fraction (log2)
HMHAPLEVGSVVRIEGQKALGTILSISDREAIVALGALKTTIPLKRLHGVSPAEAQRHLRKTTPAQAVR | 0.0521
HMVKPQANTIYKEYIKYRANLQNKNEFLSFSEYAKQKHNLEQMSEIMVDANLKEEMLETLKEMS | 0.0362
HMRRGPLTPDDFVLDMRVVHPRYGVGRIVALSGSGESRKATVDFGGSIGRMKFVLSQSPLKP | -0.414
HMEAAIRNALSRVENPDETQRARIYRTAHDALIRNLENRGITDPEQVRPQVSRLKDLISVIEREYHG | -0.0521
HMVIIPNILNKYKGLAFRQLEQVGLKIGDTIYEPNIQRDAVLRMQINGRSVQPGDQVMRFSVVDLVIG | -3.21
HMSSGNLESLLNKLHNEDYFVRLDAVKALGALGDPGAIDYLIEMLSENGIMRGWVANSLAALGEAQWKKII | -1.94
HMAAINPSALREPATPPEQLSAGDSVLHPRFGRGEILELQQQGGDPRAIVQFINEPKPRTLVLRYAQLRK | -0.049
HMDIVQLSEKINVMKMEIPAQAIGKTVLEVNFRARFDLNIIAIENGGKLVEVIKPDYVFREGDILFLSGS | -1.16
HMNVESMVGKQGKVVVEIDNISAKGMIKVDGMEWTARSVDGEIIPKDSLVAVVSVEGVKAMVRKAE | 0.163
HMVKSDLVGHRFILVEDVTPKLTPKYHYSGINWKLITTDNLVAGTRVEVIQVDVGKFHIKAIK | -1.65
HMATLTPLGRLQLARYHAQERATLAATAERFQVSTTTVRRWVGRYHQVVAAGGRPTTADMQDRPSRP | -2
HMEKTTTLFDETTNPGIIYIGKAMPTGSAISEAAAVWAIKTIDTTTDTEIKWADGVTTYTKVWNNRASYSY | -1.76
HMPKHFIDFSEGEVVSITDGPFKGFDGAISEIDNQKGKVKVMVSMFGRDTSVELDALQVKKV | -0.107
HMGNKDAQLVHLAKMNEIQIELMKTGRGYMVTDQNVYNLAKKMGENMGFKHPDLFLTDPAKV | -0.0553
HMDFRQALNTSADSDANKVALLESIVKGKYVSSTVNLLRRVITLRRGRSIDATLAAYSHYVSIR | 0.313
HMNKEIEDYVATYSSMKAKEAAAIFDTMTSDLDLVAKILEAMSADDRAKILEQMNEENAARLTKMMD | 0.21
HMLKLEPYTINEINSLQELYDLGNVRALETLISIYKDKNQVYDTRFYVLDILSKYDNPLIQEALEESITN | -1.78
HMELIELTVTEEFEMARLDQFLAGHLTQSRTYIQKLIKAGQITINGNLITRVKVPVHYGDFILINIPDPE | -3.54
HMNTAIPIAIDQLRIGMYIQLGLNWMSHPFPVSSFRIASESQIEILRGLGLAEVRYVPAKSDPVP | -2.88

Sequence | soluble fraction (log2)
HMSRSKLNRLDKIKKMLIAQTGISIKEFSASLNVSEITIRRDLNLLEEQGFIRLVNGVAIYRM | -1.55
HMQERKYTVSFNTNGGSTINDQKITSGNVIISPGAPKRSGYTFVGWYYHGQPFDLNTKINQDYVLVAKWIK | -1.16
HMFRPDYYEILQVDRHASPEVITAAYRQLLSIYNSEQDGNKQMIKLIQEAYGVLGDSQDRWLYDSWLDNN | -0.746
HMSQQMSYSDFVKAVSARQIREAQIQGDKIYATDSTGNRLTIIRLDNDQRLVDDMINNDVNIIGLEE | 0.156
HMRGVNEISYTTLISEVSGGNVRDVVISGDEITGTFNDGSRFHSFSPDDPQFIERLNDQGVIINVKPL | -0.0829
HMTRRGPLTEGDRVQVRDPKGRFHQVILVRGGRFQSNRGGFNHDDVIGRPDGQVIITDEGRQFQIL | 0.512
HMPGTPADQVAELQTKVGTETKTGDMITQDDVKLLQTALDPLAKMNDRIQAAKILESKGIVTSDGNLRT | 0.124
HMPSIGKNILYYRKKRNMTIDELSKKSGVSKSMLSQVEQEKTNPTVVTVWKIARSLDVSINQLLQT | -0.489
HMPVGVPGVVYNTDSLNVRKGAGTNYDIVSKLKRGSVIEVLEQTAVDGTVWGRIAEGWVNMEYVSL | -0.43
HMSLPALSAEEQKIVDALHGTPKGVDDIIAETGISSGALLRSLTMLELKKVIVRLPGNRIAPK | -0.128
HMEYNLTLEELNRDLYIRGEIWNVGDVVKTTDGDEGTIIRKGTNYVVFEDLRRVWLHNLEEVK | -1.85
HMKINYNEFLRRFLGEKEGDIIEMETGKRIGTHKGYWFHTIGQRKGLGLGGGPWFVIRKDIDENIIYVSHG | -1.06
HMFNDPTMEDALVNLKGITNEVLSYLSSSKIKKLEELAEMSVPELKDIVENISDDEASALIMEARKPWF | -0.113
HMAAVSSHAVKQRIRSLIQAEDPASPLSDEALRLALSALGVEVSRRAVAKYRTSMDIPASSQRKK | -0.252
HMSMANKKDFILDTAQKLFMEQGFDQTSISQILEATQIARGTLYYYFSSKEEIMDAIIERTIEQ | -1.05
HMDFDQELFDKIVEATMDEARAAMDTDDKNVREERWNKLIEHWHELFLEDYPEMDKYLEEITYKFQKNPAT | -0.302
HMSGEIPFPPAFKPSADHIAIASEKGINIETELLNFRDYHQARGTKLIDWNSAFRVWLRNAR | -0.144
HMNLGDSLFHARRKQGLSQEAVAEQLGVSRQTVSKWEANETLPDIRQSKLMAKLYHTSLDELI | 0.00427
HMALEVPGIAKDKIYRIFGQLYERQQKWEDAIDYYNRAVFFTLSGTDMILYQEDLSRVKQKISL | -0.0269
